This experiment concerns the target c-Met on human cells (HPAF, A549, MKN-45) (human) (UniProt P08581). The experiment is described as follows: cell-based or functional assay.

Sequence of c-Met on human cells (HPAF, A549, MKN-45) (human) (P08581 25-1390): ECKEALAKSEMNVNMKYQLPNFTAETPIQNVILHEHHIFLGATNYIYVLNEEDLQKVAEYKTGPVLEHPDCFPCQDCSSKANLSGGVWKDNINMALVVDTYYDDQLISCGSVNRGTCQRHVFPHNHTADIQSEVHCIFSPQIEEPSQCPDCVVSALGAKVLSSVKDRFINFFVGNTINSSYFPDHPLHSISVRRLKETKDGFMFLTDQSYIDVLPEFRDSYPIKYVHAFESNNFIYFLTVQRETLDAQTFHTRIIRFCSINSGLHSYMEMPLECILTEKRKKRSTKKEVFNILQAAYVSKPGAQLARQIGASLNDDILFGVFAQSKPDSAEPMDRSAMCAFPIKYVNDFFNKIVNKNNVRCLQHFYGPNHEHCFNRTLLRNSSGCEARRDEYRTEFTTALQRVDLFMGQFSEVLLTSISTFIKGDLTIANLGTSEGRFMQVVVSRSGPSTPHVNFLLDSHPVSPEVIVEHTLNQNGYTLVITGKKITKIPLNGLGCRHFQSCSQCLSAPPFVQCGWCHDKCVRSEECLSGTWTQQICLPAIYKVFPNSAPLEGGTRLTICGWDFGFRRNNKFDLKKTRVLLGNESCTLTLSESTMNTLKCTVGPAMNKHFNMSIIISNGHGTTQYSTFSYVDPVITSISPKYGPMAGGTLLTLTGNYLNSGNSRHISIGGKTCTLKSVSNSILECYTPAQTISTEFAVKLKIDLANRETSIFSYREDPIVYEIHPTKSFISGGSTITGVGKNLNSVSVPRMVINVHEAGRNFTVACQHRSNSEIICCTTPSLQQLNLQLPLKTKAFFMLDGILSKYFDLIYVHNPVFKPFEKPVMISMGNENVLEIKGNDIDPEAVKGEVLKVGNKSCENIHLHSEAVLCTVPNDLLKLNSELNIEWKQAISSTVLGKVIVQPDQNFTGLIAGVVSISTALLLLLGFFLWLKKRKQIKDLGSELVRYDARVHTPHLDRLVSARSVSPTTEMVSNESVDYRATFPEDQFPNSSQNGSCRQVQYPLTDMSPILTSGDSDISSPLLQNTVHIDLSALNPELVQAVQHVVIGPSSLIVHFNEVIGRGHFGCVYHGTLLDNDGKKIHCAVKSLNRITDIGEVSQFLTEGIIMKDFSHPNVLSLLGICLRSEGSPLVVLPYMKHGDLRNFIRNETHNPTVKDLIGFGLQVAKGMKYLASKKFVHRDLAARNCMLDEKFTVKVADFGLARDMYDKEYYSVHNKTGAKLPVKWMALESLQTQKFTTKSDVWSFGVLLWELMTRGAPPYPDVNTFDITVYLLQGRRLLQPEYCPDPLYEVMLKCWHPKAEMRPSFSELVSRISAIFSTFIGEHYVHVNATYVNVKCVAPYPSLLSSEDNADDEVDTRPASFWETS

On to murine 5D5 antibody, for which the down-regulation of total c-Met on the surface of MKN-45 cells (flow cytometry) fell in the range of 50 to 60%.

Source of the values: patent US20120148607A1.
